Measurements taken from article PMC8818041 (Molecular cell, 2021).

T1: FLAG-tagged Npl4 (S. cerevisiae, UniProt P33755 1-580)
T1 sequence: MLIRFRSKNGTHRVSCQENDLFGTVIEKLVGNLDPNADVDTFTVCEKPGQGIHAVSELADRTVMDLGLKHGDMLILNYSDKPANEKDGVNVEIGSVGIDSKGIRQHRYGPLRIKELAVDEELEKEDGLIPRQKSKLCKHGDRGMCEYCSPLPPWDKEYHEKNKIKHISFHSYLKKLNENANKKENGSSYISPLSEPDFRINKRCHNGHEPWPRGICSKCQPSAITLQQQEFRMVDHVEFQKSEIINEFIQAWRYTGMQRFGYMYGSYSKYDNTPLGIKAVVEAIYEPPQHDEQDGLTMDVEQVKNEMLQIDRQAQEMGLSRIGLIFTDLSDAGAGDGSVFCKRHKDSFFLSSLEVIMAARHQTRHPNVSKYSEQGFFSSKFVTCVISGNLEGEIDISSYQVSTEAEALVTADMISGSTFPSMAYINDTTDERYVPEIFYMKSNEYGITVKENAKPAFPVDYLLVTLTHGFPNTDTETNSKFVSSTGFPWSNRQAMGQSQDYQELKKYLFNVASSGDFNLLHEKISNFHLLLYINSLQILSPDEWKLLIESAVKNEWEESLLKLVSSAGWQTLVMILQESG


Key:
cross-linking = target: the molecule itself; assay: cross-linking
FLAG-tagged Npl4 = target: T1, FLAG-tagged Npl4; assay: pull-down

| binding result (FLAG-tagged Npl4) | Binder | stoichiometry N (cross-linking) |
| --- | --- | --- |
|  | Cdc48^2Cys (Cdc48 containing S286C and R333C) (enzyme, S. cerevisiae, disulfide bridges between neighbouring protomers after oxidation) MGEEHKPLLDASGVDPREEDKTATAILRRKKKDNMLLVDDAINDDNSVIAINSNTMDKLELFRGDTVLVKGKKRKDTVLIVLIDDELEDGACRINRVVRNNLRIRLGDLVTIHPCPDIKYATRISVLPIADTIEGITGNLFDVFLKPYFVEAYRPVRKGDHFVVRGGMRQVEFKVVDVEPEEYAVVAQDTIIHWEGEPINREDEENNMNEVGYDDIGGCRKQMAQIREMVELPLRHPQLFKAIGIKPPRGVLMYGPPGTGKTLMARAVANETGAFFFLINGPEVMCKMAGESESNLRKAFEEAEKNAPAIIFIDEIDSIAPKRDKTNGEVERCVVSQLLTLMDGMKARSNVVVIAATNRPNSIDPALRRFGRFDREVDIGIPDATGRLEVLRIHTKNMKLADDVDLEALAAETHGYVGADIASLCSEAAMQQIREKMDLIDLDEDEIDAEVLDSLGVTMDNFRFALGNSNPSALRETVVESVNVTWDDVGGLDEIKEELKETVEYPVLHPDQYTKFGLSPSKGVLFYGPPGTGKTLLAKAVATEVSANFISVKGPELLSMWYGESESNIRDIFDKARAAAPTVVFLDELDSIAKARGGSLGDAGGASDRVVNQLLTEMDGMNAKKNVFVIGATNRPDQIDPAILRPGRLDQLIYVPLPDENARLSILNAQLRKTPLEPGLELTAIAKATQGFSGADLLYIVQRAAKYAIKDSIEAHRQHEAEKEVKVEGEDVEMTDEGAKAEQEPEVDPVPYITKEHFAEAMKTAKRSVSDAELRRYEAYSQQMKASRGQFSNFNFNDAPLGTTATDNANSNNSAPSGAGAAFGSNAEEDDDLYS | 6 |
| binds | Ufd1 (natural protein, S. cerevisiae, UniProt P53044 1-361, looked up) MFSGFSSFGGGNGFVNMPQTFEEFFRCYPIAMMNDRIRKDDANFGGKIFLPPSALSKLSMLNIRYPMLFKLTANETGRVTHGGVLEFIAEEGRVYLPQWMMETLGIQPGSLLQISSTDVPLGQFVKLEPQSVDFLDISDPKAVLENVLRNFSTLTVDDVIEISYNGKTFKIKILEVKPESSSKSICVIETDLVTDFAPPVGYVEPDYKALKAQQDKEKKNSFGKGQVLDPSVLGQGSMSTRIDYAGIANSSRNKLSKFVGQGQNISGKAPKAEPKQDIKDMKITFDGEPAKLDLPEGQLFFGFPMVLPKEDEESAAGSKSSEQNFQGQGISLRKSNKRKTKSDHDSSKSKAPKSPEVIEID |  |
